In the nanobody polyreactivity screen of Harvey et al. (2022):

Experiment: yeast display, Sf9 membrane polyspecificity reagent, FACS + sequencing; frameworks hold sequencing errors
Method in brief: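 Polyreactivity labels are assigned by the sorting gate from which each nanobody was recovered. The gates were low and high (top ~1%), set on anti-HA fluorescence for expression and streptavidin fluorescence for reagent binding. Before sorting, galactose-induced (36–48 hours) yeast display cells were stained for 1 hour at 4 °C with 10% biotinylated, detergent-solubilized Sf9 membrane reagent.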

Sequence: QVQLVESGGGLVQAGGSLRLSCAASGSIFYYNPMGWYRQAPGKERELVATISGRGGSTYYADSVKGRFTISRDNAKNTVYLQMNILKPEDTAVYYCNTVPSHHRHTKYDYWGQGTQVTVSS
- polyreactivity (PSR sort gate): low polyreactivity

Sequence: QVQLVESGGGLVQAGGSLRLSCAASGSMFGYYAMGWYRQATGKERELVASIRRGSSTNYADSVKGRFTISRDNAKNTVYLQMNSLKPEDTAVYYCNAVLLSYDARGYSNLYDYWGQGPQVTVSS
- polyreactivity (PSR sort gate): low polyreactivity

Sequence: QDQDVESGGGLVQARGSLPLSCAASGSIFAWYAMGWYRQSPGKERELLAVITSSDGSTHYADSVKGRFTISRDNAKNSVYLQMISLKPEDTAVYYCAAFRSLRESKGYWWEYYSWGQGTQVTVSS
- polyreactivity (PSR sort gate): low polyreactivity

Sequence: QVQLVESGGGLVQAGGSLRLSCAASGRPFVSYALGWYRQAPGKERELVAVITGGTGNTYYADSVKGRFTISRDNAKNTVYLQMNSLIPEDTAVYYCNARGGYYKFRYPLYYWGQVTQVTVSS
- polyreactivity (PSR sort gate): high polyreactivity

Sequence: QVQLVESGGGLVQAGGSLRLSCAASGFIFIINAMGWYRQAPGKERELVAGIRWSGGSTYYADSVKGRFTISRDNAKNTVYLQMNSLKPEDTAVYYCNKDRGSLTLYTYDYWGQGTQVTVSS
- polyreactivity (PSR sort gate): low polyreactivity

Sequence: QVQLVESGGGLVQAGGSLRLSCAASGRNFSRNAMGWYRQAPGKERELVAAISSGGRTKYADSVKGRFTISRDNAKNTVYLQMNSLKPEDTAVYYCAATDPRSWYGRGRYDYWGQGTQVTVSS
- polyreactivity (PSR sort gate): high polyreactivity

Sequence: QVQLVESGGGLVQAGGSLRLSCAASGSTFPPYVMGWYRQAPGKERELVAAISRGGGSTYYADSVKGRFTISRDNAKNTVYLQMNSLKPEDTAVYYCAAKNVYHDDYWGQGTQVTVSS
- polyreactivity (PSR sort gate): high polyreactivity

Sequence: QVQLVESGGGLVQEGGSLRLSCAASGSIFRYYAMGWYRQAPGKERELVAVITRGGSTYYADSVKGRFTISRDNAKNTVYLQMNSLKPEDTAVYYCAAEDYVIGDSGYDYWGQGTQVTVSS
- polyreactivity (PSR sort gate): low polyreactivity

Sequence: QVQLVESGGGLVQAGGSLRLSCAASGSIFSKYVMGWYRQAPGKQTELVAAISWSGTRTYYADSVKGRFTISRDNAKNTVYLQMNSLKPEDTAVYYCAALRLYAGHQYDYWGQGTQVTVSS
- polyreactivity (PSR sort gate): high polyreactivity

Sequence: QVQLVESGGGLVQAGGSLRLSCAASGRTFKINAMGWYRPAPGKERELVAAISRGGGSTYADSVKGRFTISRDNAKNTVYLQMNSLKPEDTAVYYCAARVYGTRKINYSWGQGTQVTVSS
- polyreactivity (PSR sort gate): high polyreactivity

Sequence: QVQLVESGGGLVQAGGSLRLSCASSGSTFFTNVMVRYRQAPGKERELVAAIDQRDGRTYYADSVKGRFTISRDNAKNTVYLQMNSLKPEDTAVYYSNAGTDGYQFYFGFADYDYWGQGTQVTVSA
- polyreactivity (PSR sort gate): low polyreactivity

Sequence: QVKLVESGGGLVQAGGSLRLSCAASGFTFDKYAMGWSRPEPGKERELVATISRRGGSTYYADSVKGRFTISRDNAKNTVYLQMNSLKPEDTAVYYCAKVRYYYSPYREFDYCGQGTQVTVSS
- polyreactivity (PSR sort gate): high polyreactivity

Sequence: QVQLVESGGGLVQAGGSLRLSCAASGRILPYYAMGWYRQAPGKERELVAAITSGGSTYYADSVKGRFTISRDNAKNTVSLQMNSLKPEDTAVYYCATDVDKSLYDYWGQGTQVTVSS
- polyreactivity (PSR sort gate): low polyreactivity

Sequence: QVQLVESGGGLVQAGGSLRLSCAASGNTFYVYAMGWYRQAPGKERELVADITWSGGSTYYADSVKGRFTISRDNAKNTVYLQMNSLKPEDTAVYYCNADYYYQLWELEYYYWGQGTQVTVSS
- polyreactivity (PSR sort gate): high polyreactivity

Sequence: QVQLVESGGGLVQAGGSLRLSCAASGSTFGFNAMGWYRQAPGKERELVAAITKSGGSTYYADSVKGRFTISRDNAKNTVYLQMNSLKPEDTAVYYCAARRSGRKYDYWGQGTQVTVSS
- polyreactivity (PSR sort gate): high polyreactivity

Sequence: QVQLVESGGGLVQAGGSLRLSCAASGFTFGYYAMGWYRQAPGKERELVAAINWSGDSTYYADSVKGRFTISRDNAKNTVYLQMNSLKPEDTAVYYCNAVIEDLPYDYWGQGTQVTVSS
- polyreactivity (PSR sort gate): low polyreactivity

Sequence: QVQLVESGGGLVQAGGSLSLSCAASGRIFAYYAMGWYRQAPGKERELVAAISGGGGSTYYADSVKGRFTISRDNAKNTVYLQMNSLKPEDTAVYYCAARYTVYSATGRYYYWGQGTQVTVSS
- polyreactivity (PSR sort gate): high polyreactivity

Sequence: QVQLVESGGGLVQAGGSLRLSCAASVLILYYYAMGWYRQAPGKERELVAAISRRDGDTYYADSVKGRFTISRDNAKNTVYLQMNSLKPEDTAVYYCAADRRWSWVFRDDYWGQGTQVTVSS
- polyreactivity (PSR sort gate): low polyreactivity

Sequence: QVQLVESGGGLVQAGCSLRLSCAASGSIFPFNAMGWYRQAPGKERELVAAITRSGGSTYYADSVKGRFTISRDNAKNTVYLQMNSLKPEDTAVYYCATDPEWPLPAYYYWGQGTQVTVSS
- polyreactivity (PSR sort gate): low polyreactivity

Sequence: QVQLLHSGGGKVQAGGRLRLSCAASGFIFCYYAMGWYRQAPGKERELVATISSGGNTYYADSVKGRFTISRDNAKNTVYLQMNSLKPEDTAVYYCAARWGVRPFYSTQYRYYYWGQGTQVTVSS
- polyreactivity (PSR sort gate): high polyreactivity

Sequence: QVQLVESGGGLVQAGGSLRLSCAAYGSFFPYNAMGWYRQAPGKERELVAGITRRGGSTYYADSVKGRFTISRDNAKNTVYLQINSLKPVDTAVYYCGTEVTYPWHVDEGDYWGQGTQVTVSS
- polyreactivity (PSR sort gate): low polyreactivity

Sequence: QVQLVESGGGLVQAGGSLRLSCAASGRTFSSYAMGWYRQAPGKERELVAAITRTGGRTYYAYSVKGRFTISRDNAKNSVYLQMNSLKPEDTAVYFCAALYIYRTFAALSRYDYWGQGTQVTVSS
- polyreactivity (PSR sort gate): high polyreactivity
